According to patent US12365732 (23ANDME, dated 2025):

How the values were obtained:
[1] = molecular target: T1, hu-CD226 on Expi293 cells (human, UniProt Q15762 19-336); test: FACS, CD226-transfected Expi293 cells
T1 sequence: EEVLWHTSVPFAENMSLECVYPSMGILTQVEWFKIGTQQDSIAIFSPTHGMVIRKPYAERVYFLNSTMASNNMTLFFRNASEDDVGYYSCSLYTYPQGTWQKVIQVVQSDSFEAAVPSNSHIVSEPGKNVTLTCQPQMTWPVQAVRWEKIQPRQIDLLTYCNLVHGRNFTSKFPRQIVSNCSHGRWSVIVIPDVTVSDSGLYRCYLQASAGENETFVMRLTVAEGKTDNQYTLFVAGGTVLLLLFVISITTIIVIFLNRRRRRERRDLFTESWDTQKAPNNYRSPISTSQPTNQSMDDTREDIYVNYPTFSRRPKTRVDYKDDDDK
Experimental: In order to assess the generated antibodies for secondary binding to CD226, sequences encoding human CD226 ("hu-CD226") (SEQ ID NO: 482) and cyno CD226 ("cy-CD226") (SEQ ID NO: 483) (see Table 26 and Sequence Listing) were each cloned into pcDNA3.1 expression vector and Expi293 cells were separately transfected with plasmid containing either the hu-CD226 or cy-CD226 coding sequence. Starting concentrations of 1 μM and corresponding 3X serial dilutions of each antibody, NGS8, 10G1, and MABT398 (CD226 positive control, EMD Millipore, Burlington, MA, USA), were prepared for staining. Secondary antibodies employed included goat anti-mouse F(ab)2-PE (Invitrogen, Carlsbad, CA, USA) and goat anti-human F(ab)2-PE (Jackson ImmunoResearch, West Grove, PA, USA).
Samples, each containing one million transfected cells, were stained with primary antibody for 1 hr and secondary antibody for 30 min at 4° C. with agitation. Stained cells were washed in FACS buffer (1% BSA in PBS), fixed in 4% freshly prepared paraformaldehyde, and analyzed by flow cytometry. Ten thousand events were collected for each sample and curves, showing the fold change in CD226 binding, were separately plotted for hu-CD226 (FIG. 12A) and cy-CD226 (FIG. 12B) expressing cells.

[2] = molecular target: T2, hu-CD96 (soluble, isoform 2 extracellular domain) (human, UniProt P40200 22-516, biotinylated in Octet and blocking ELISA); test: BLI (Octet), biotin-CD96 on SA, Fab analyte
T2 construct: the assays name only hu-CD96; also called hCD96; biotinylated hu-CD96
T2 sequence: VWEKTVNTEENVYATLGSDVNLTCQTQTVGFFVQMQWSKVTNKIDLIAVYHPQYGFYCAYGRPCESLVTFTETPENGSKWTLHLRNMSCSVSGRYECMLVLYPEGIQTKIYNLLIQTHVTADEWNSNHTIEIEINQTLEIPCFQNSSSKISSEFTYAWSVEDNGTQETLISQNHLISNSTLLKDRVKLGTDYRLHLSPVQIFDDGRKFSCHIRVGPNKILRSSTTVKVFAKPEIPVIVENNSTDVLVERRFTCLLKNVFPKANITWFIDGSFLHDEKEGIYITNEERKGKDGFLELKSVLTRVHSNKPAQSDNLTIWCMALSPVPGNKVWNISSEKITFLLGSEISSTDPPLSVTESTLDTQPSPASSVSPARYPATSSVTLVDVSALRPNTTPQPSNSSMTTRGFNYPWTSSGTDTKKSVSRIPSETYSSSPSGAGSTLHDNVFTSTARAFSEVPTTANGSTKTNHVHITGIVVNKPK

[3] = molecular target: T2, hu-CD96 (soluble, isoform 2 …); test: CD155 blocking ELISA

B1: 10G1 (clone 10G1.3G8), purified hybridoma antibody (antibody, V domains shown)
VH: QIQLVQSGPELKKPGETVKISCKASGYPFTTYGMSWVKQAPGKGLKWMGWINTDSGVPTYADDFKGRFAFSLETSANTAYLQINSLKNEDAATYFCARNIYYGWGNFDYWGQGTILTVSS
VL: DILMTQSPTTLSVTPGETVSLSCRASQDIYRNLHWYQQKSQGTPRLLIKHASDSISGIPSRFTGSGSGTDFTLSINSVKPEDEGIYYCLQGYSMPYTFGGGTKLEIK
notes: murine hybridoma IgG
- EC50 [1]: 232 nM

B2: mAb1.v7 Fab (Fab, V domains shown)
VH: EVQLVQSGAEVKKPGASVKVSCKASGFTFTNNWMHWVRQAPGQGLEWIGMIHPNSGITNINEKFKNRVTMTTDTSTSTAYMELRSLRSEDTAVYYCRSDGTYEGYFDYWGQGTLVTVSS
VL: DIQLTQSPSSLSASVGDRVTITCKASQNVGTAIVWYQQKPGKAPKVLIYSASTRYTGVPSRFSGSGSGTDFTLTISSLQPEDFATYYCQQYSSSPLTFGQGTKVEIK
- apparent Kd (pooled screen) [2]: 76 nM
- apparent IC50 (pooled screen) [3]: 0.74 nM
